B1: AFF1-THD (953-1210), wild type [not stated] / itself (parent)
chain: GKPQVKFDKQQADLHMREAKKMKQKAELMTDRVGKAFKYLEAVLSFIECGIATESESQSSKSAYSVYSETVDLIKFIMSLKSFSDATAPTQEKIFAVLCMRCQSILNMAMFRCKKDIAIKYSRTLNKHFESSSKVAQAPSPCIASTGTPSPLSPMPSPASSVGSQSSAGSVGSSGVAATISTPVTIQNMTSSYVTITSHVLTAFDLWEQAEALTRKNKEFFARLSTNVCTLALNSSLVDLVHYTRQGFQQLQELTKTP
B2: human AFF4-THD (902-1163), wild type [human] / itself (parent)
chain: RRTKLVFDDRNYSADHYLQEAKKLKHNADALSDRFEKAVYYLDAVVSFIECGNALEKNAQESKSPFPMYSETVDLIKYTMKLKNYLAPDATAADKRLTVLCLRCESLLYLRLFKLKKENALKYSKTLTEHLKNSYNNSQAPSPGLGSKAVGMPSPVSPKLSPGNSGNYSSGASSASASGSSVTIPQKIHQMAASYVQVTSNFLYATEIWDQAEQLSKEQKEFFAELDKVMGPLIFNASIMTDLVRYTRQGLHWLRQDAKLIS

Variants of: B1
Assay: analytical gel filtration
Conditions: with itself; read off a plot

Row | screen value [mL] | Variant
1 | 9.5 | GKPQVKFDKQQADLHMREAKKMKQKAELMTDRVGKAFKYLEAVLSFIECGIATESESQSSKSAYSVYSETVDLIKFIMSLKSFSDATAPTQEKIFAVLCMRCQSILNMAMFRCKKDIAIKYSRTLNKHFESSSKVAQAPSPCIASTGTPSPLSPMPSPASSVGSQSSAGSVGSSGVAATISTPVTIQNMTSSAVTITSHVLTAFDLWEQAEALTRKNKEFFARLSTNVCTLALNSSLVDLVHYTRQGFQQLQELTKTP [chain 1 Y193A]
2 | 10.5 | GKPQVKFDKQQADLHMREAKKMKQKAELMTDRVGKAFKYLEAVLSFIECGIATESESQSSKSAYSVYSETVDLIKFIMSLKSFSDATAPTQEKIFAVLCMRCQSILNMAMARCKKDIAIKYSRTLNKHFESSSKVAQAPSPCIASTGTPSPLSPMPSPASSVGSQSSAGSVGSSGVAATISTPVTIQNMTSSAATITSHALTAFDLWEQAEALTRKNKEFFARLSTNVCTLALNSSLVDLVHYTRQGFQQLQELTKTP [chain 1 F111A Y193A V194A V200A]
3 | 9.4 | GKPQVKFDKQQADLHMREAKKMKQKAELMTDRVGKAFKYLEAVLSFIECGIATESESQSSKSAYSVYSETVDLIKFIMSLKSFSDATAPTQEKIFAVLCMRCQSILNMAMARCKKDIAIKYSRTLNKHFESSSKVAQAPSPCIASTGTPSPLSPMPSPASSVGSQSSAGSVGSSGVAATISTPVTIQNMTSSYVTITSHVLTAFDLWEQAEALTRKNKEFFARLSTNVCTLALNSSLVDLVHYTRQGFQQLQELTKTP [chain 1 F111A]

Variants of: B1
Assay: sedimentation velocity analytical ultracentrifugation
Conditions: with itself

Row | screen value [kD] | Variant
4 | 27.2 | GKPQVKFDKQQADLHMREAKKMKQKAELMTDRVGKAFKYLEAVLSFIECGIATESESQSSKSAYSVYSETVDLIKFIMSLKSFSDATAPTQEKIFAVLCMRCQSILNMAMARCKKDIAIKYSRTLNKHFESSSKVAQAPSPCIASTGTPSPLSPMPSPASSVGSQSSAGSVGSSGVAATISTPVTIQNMTSSAATITSHALTAFDLWEQAEALTRKNKEFFARLSTNVCTLALNSSLVDLVHYTRQGFQQLQELTKTP [chain 1 F111A Y193A V194A V200A]

Same assay, conditions: with itself; read off a plot

Row | screen value [S] | Variant
5 | 2.2 | GKPQVKFDKQQADLHMREAKKMKQKAELMTDRVGKAFKYLEAVLSFIECGIATESESQSSKSAYSVYSETVDLIKFIMSLKSFSDATAPTQEKIFAVLCMRCQSILNMAMARCKKDIAIKYSRTLNKHFESSSKVAQAPSPCIASTGTPSPLSPMPSPASSVGSQSSAGSVGSSGVAATISTPVTIQNMTSSAATITSHALTAFDLWEQAEALTRKNKEFFARLSTNVCTLALNSSLVDLVHYTRQGFQQLQELTKTP [chain 1 F111A Y193A V194A V200A]

Variants of: B2
Assay: analytical gel filtration
Conditions: with itself; read off a plot

Row | screen value [mL] | Variant
6 | 10.9 | RRTKLVFDDRNYSADHYLQEAKKLKHNADALSDRFEKAVYYLDAVVSFIECGNALEKNAQESKSPFPMYSETVDLIKYTMKLKNYLAPDATAADKRLTVLCLRCESLLYLRLFKLKKENALKYSKTLTEHLKNSYNNSQAPSPGLGSKAVGMPSPVSPKLSPGNSGNYSSGASSASASGSSVTIPQKIHQMAASAVQVTSNFLYATEIWDQAEQLSKEQKEFFAELDKVMGPLIFNASIMTDLVRYTRQGLHWLRQDAKLIS [chain 1 Y195A]
7 | 10.8 | RRTKLVFDDRNYSADHYLQEAKKLKHNADALSDRFEKAVYYLDAVVSFIECGNALEKNAQESKSPFPMYSETVDLIKYTMKLKNYLAPDATAADKRLTVLCLRCESLLYLRLAKLKKENALKYSKTLTEHLKNSYNNSQAPSPGLGSKAVGMPSPVSPKLSPGNSGNYSSGASSASASGSSVTIPQKIHQMAASAVQVTSNFLYATEIWDQAEQLSKEQKEFFAELDKVMGPLIFNASIMTDLVRYTRQGLHWLRQDAKLIS [chain 1 F113A Y195A]
8 | 10.6 | RRTKLVFDDRNYSADHYLQEAKKLKHNADALSDRFEKAVYYLDAVVSFIECGNALEKNAQESKSPFPMYSETVDLIKYTMKLKNYLAPDATAADKRLTVLCLRCESLLYLRLAKLKKENALKYSKTLTEHLKNSYNNSQAPSPGLGSKAVGMPSPVSPKLSPGNSGNYSSGASSASASGSSVTIPQKIHQMAASYVQVTSNFLYATEIWDQAEQLSKEQKEFFAELDKVMGPLIFNASIMTDLVRYTRQGLHWLRQDAKLIS [chain 1 F113A]

Variants of: B2
Assay: sedimentation velocity analytical ultracentrifugation
Conditions: with itself

Row | screen value [kD] | Variant
9 | 28.9 | RRTKLVFDDRNYSADHYLQEAKKLKHNADALSDRFEKAVYYLDAVVSFIECGNALEKNAQESKSPFPMYSETVDLIKYTMKLKNYLAPDATAADKRLTVLCLRCESLLYLRLAKLKKENALKYSKTLTEHLKNSYNNSQAPSPGLGSKAVGMPSPVSPKLSPGNSGNYSSGASSASASGSSVTIPQKIHQMAASAVQVTSNFLYATEIWDQAEQLSKEQKEFFAELDKVMGPLIFNASIMTDLVRYTRQGLHWLRQDAKLIS [chain 1 F113A Y195A]

Same assay, conditions: with itself; read off a plot

Row | screen value [S] | Variant
10 | 2.2 | RRTKLVFDDRNYSADHYLQEAKKLKHNADALSDRFEKAVYYLDAVVSFIECGNALEKNAQESKSPFPMYSETVDLIKYTMKLKNYLAPDATAADKRLTVLCLRCESLLYLRLAKLKKENALKYSKTLTEHLKNSYNNSQAPSPGLGSKAVGMPSPVSPKLSPGNSGNYSSGASSASASGSSVTIPQKIHQMAASAVQVTSNFLYATEIWDQAEQLSKEQKEFFAELDKVMGPLIFNASIMTDLVRYTRQGLHWLRQDAKLIS [chain 1 F113A Y195A]

Source: publication PMC7026398, “Structural and functional insight into the effect of AFF4 dimerization on activation of HIV-1 proviral transcription” (Cell Discovery, 2020)
